Experimental data published in the supplement of paper PMC10724198.
± gives the standard deviation of the averaged measurements.

Tested on: Saccharomyces cerevisiae
Assay: protein stability index of tFT-peptide fusion (C-terminal peptide) (PSI (0-1 scale)); higher = more stable (slower turnover)
Settings: genetic background: wild type; temperature: 30 C
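Also: PSI is a weighted mean of sequencing reads over stability bins, variants kept only with over 10 reads, mCherry proximal and sfGFP distal, peptide attached via GGGS linker.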

Sequence | protein stability index
PPDPSTLSTSPS | 0.689 ± 0.042
PPEPPLSSLRRP | 0.674 ± 0.073
PPFASPSPLPPP | 0.7006 ± 0.0069
PPFFSHDWYLRV | 0.695 ± 0.076
PPFLPASHPAPS | 0.824 ± 0.065
PPFPPPLLPPSP | 0.732 ± 0.036
PPFSSRTRPPLC | 0.67 ± 0.023
PPFVSPQRQRLV | 0.669 ± 0.019
PPGAQPRSPSPL | 0.771 ± 0.08
PPGPAPPHAASH | 0.6421 ± 0.0029
PPGPPIAPLFPP | 0.657 ± 0.0071
PPGPSVPPHRPP | 0.754 ± 0.049
PPHAPLPPPTPP | 0.634 ± 0.037
PPHAPTRTTSGP | 0.6388 ± 0.0013
PPHLCPTSLTTL | 0.642 ± 0.026
PPHNTPLAPSQY | 0.659 ± 0.0094
PPHPDTSPSFPP | 0.6787 ± 0.0022
PPHPGALPPAAA | 0.631 ± 0.035
PPHPPLPARPSP | 0.681 ± 0.041
PPHPPPPLLPAP | 0.715 ± 0.051
PPHPSPPTPPPH | 0.687 ± 0.017

Sequence | protein stability index
PPIPPALLLVSP | 0.633 ± 0.0095
PPIVHPGSLRSA | 0.673 ± 0.024
PPIVPFGSPVVL | 0.728 ± 0.026
PPKEEPRWATGD | 0.693 ± 0.043
PPLIPPSCSPLH | 0.6864 ± 0.0027
PPLLLSPCPSLP | 0.7229 ± 0.0034
PPLLPLCVPPPP | 0.71 ± 0.033
PPLLPPGPPSPP | 0.588 ± 0.01
PPLLPPPPRRPP | 0.643 ± 0.0012
PPLLTPSVPFSS | 0.715 ± 0.033
PPLPFPPLPPSP | 0.74 ± 0.063
PPLPFPPPPLPP | 0.613 ± 0.029
PPLPLLPSPSPL | 0.753 ± 0.086
PPLPLLSTCAGA | 0.69 ± 0.15
PPLPLSTLFLSA | 0.712 ± 0.041
PPLPPAPPPSPP | 0.652 ± 0.029
PPLPPPCPLPRN | 0.7711 ± 0.0013
PPLPPPPPDFSP | 0.761 ± 0.18
PPLPPPPPRPPP | 0.611 ± 0.086
PPLPPPRPLSPC | 0.713 ± 0.094
PPLPPPRRSSPP | 0.705 ± 0.02

Sequence | protein stability index
PPLPPRSISPVL | 0.737 ± 0.11
PPLPPRTPPPLS | 0.704 ± 0.077
PPLPSPASPRTP | 0.721 ± 0.031
PPLPSPPAHSRS | 0.678 ± 0.02
PPLRLRLPPAVL | 0.629 ± 0.095
PPLSPPALPPPL | 0.672 ± 0.0076
PPLSSFSHHSFG | 0.715 ± 0.069
PPLTPLPLGSPP | 0.717 ± 0.027
PPLTRPPTPVPP | 0.6626 ± 0.0048
PPLVHHSTLPPA | 0.679 ± 0.022
PPLVPRTSPSPS | 0.666 ± 0.012
PPLYPGSKVQLL | 0.672 ± 0.011
PPNHRAGSWLAR | 0.655 ± 0.012
PPNPFRHTPSIP | 0.736 ± 0.027
PPNPNEPTQTPA | 0.711 ± 0.013
PPNPPPPPLPPP | 0.666 ± 0.068
PPPAASCLLLPL | 0.699 ± 0.028
PPPALLAPPLPF | 0.756 ± 0.096
PPPAPAPPLTSS | 0.71 ± 0.023
PPPAPLALTPSL | 0.71394 ± 0.00049
PPPAPPPCAPTP | 0.713 ± 0.043

Sequence | protein stability index
PPPAPSPPPSPP | 0.611 ± 0.0099
PPPAPSSPVLVP | 0.686 ± 0.037
PPPARSPLPLPP | 0.742 ± 0.018
PPPFPLLSPPPL | 0.808 ± 0.0097
PPPHPHLPPHSD | 0.69 ± 0.06
PPPHPLLRPSPS | 0.737 ± 0.011
PPPHPPHSALPS | 0.762 ± 0.021
PPPHPPLPPPTP | 0.678 ± 0.039
PPPHPPPPAPPY | 0.735 ± 0.019
PPPHPTLSPLVP | 0.676 ± 0.013
PPPHTHPPTPLL | 0.689 ± 0.011
PPPLASLPSFLR | 0.739 ± 0.011
PPPLLPPRAPSP | 0.6294 ± 0.0031
PPPLLTSSPPPR | 0.712 ± 0.025
PPPLPASPPPPY | 0.683 ± 0.035
PPPLPLSLCEPL | 0.7 ± 0.019
PPPLPPALSPSH | 0.679 ± 0.07
PPPLPPPHPSPI | 0.669 ± 0.019
